Test results reported in US20100055095A1 (Genentech, published 2010).

What was measured:
Test in all cases: co-immunoprecipitation from transfected Cos 7 cells on HA beads, western blot with anti-HA and anti-p110α
[1] = target: T1, p110α, wild-type (protein encoded by PIK3CA, catalytic subunit of PI3K) (human, UniProt P42336 1-1068)
T1 construct: also called p110alpha WT
Excerpt: (§1) Proteins were immunoprecipitated using HA beads, separated by SDS-PAGE, transferred to nitrocellulose, and detected using anti-HA and anti-p110α antibodies. […] In the header row of Table 2, the terms “p110alpha E545K” and “p110alpha H1047R” refer to two known mutational “hot spots” in p110α which result in constitutively active p110α.

p110α E545K = target: T2, p110α E545K (human, UniProt P42336 1-1068)
T2 construct: Known hot-spot mutant, constitutively active p110α; also called p110alpha E545K
T2 sequence (P42336 whole entry E545K): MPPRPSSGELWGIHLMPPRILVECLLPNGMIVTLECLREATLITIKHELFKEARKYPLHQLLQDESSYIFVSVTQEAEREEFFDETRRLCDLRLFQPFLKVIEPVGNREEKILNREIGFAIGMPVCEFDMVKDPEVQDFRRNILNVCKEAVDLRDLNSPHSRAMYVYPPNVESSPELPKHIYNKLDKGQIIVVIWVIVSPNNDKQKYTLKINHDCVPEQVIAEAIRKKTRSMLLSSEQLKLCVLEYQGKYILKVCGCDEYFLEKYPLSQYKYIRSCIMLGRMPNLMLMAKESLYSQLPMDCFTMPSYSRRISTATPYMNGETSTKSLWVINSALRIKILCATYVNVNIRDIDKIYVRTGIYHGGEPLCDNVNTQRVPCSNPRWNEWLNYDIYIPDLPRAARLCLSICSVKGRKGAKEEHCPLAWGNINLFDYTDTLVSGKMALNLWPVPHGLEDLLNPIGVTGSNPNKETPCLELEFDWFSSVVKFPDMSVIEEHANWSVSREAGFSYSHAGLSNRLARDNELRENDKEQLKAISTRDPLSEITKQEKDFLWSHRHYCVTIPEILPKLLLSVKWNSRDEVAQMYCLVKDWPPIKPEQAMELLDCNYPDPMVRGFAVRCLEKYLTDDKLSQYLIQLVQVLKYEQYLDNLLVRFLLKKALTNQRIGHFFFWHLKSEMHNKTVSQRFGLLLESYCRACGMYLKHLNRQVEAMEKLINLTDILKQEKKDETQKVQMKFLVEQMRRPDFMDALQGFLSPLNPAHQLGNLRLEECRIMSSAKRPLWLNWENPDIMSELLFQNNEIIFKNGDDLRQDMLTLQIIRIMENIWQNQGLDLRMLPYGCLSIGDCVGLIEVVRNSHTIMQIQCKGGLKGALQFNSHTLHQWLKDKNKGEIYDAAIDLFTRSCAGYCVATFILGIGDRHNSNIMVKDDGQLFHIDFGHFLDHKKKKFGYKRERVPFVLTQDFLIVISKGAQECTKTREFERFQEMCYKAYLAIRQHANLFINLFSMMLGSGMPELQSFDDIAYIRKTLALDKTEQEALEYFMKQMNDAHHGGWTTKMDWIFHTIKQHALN
Excerpt: as §1

p110α H1047R = target: T3, p110α H1047R (human, UniProt P42336 1-1068)
T3 construct: Known hot-spot mutant, constitutively active p110α; also called p110alpha H1047R
T3 sequence (P42336 whole entry H1047R): as the sequence (P42336 whole entry E545K) above, with K545E, H1047R counted along it
Excerpt: as §1

Measured: binding result

T1 sequence (P42336 whole entry): as the sequence (P42336 whole entry E545K) above, with K545E counted along it

B1: N-terminally HA-tagged p85α R162stop (other)
chain: MSAEGYQYRALYDYKKEREEDIDLHLGDILTVNKGSLVALGFSDGQEARPEEIGWLNGYNETTGERGDFPGTYVEYIGRKKISPPTPKPRPPRPLPVAPGSSKTEADVEQQALTLPDLAEQFAPPDIAPPLLIKLVEAIEKKGLECSTLYRTQSSSNLAEL
notes: Stop codon at R162; also called p85 R162stop; 162R>O; not shown: N-terminal HA tag
no binding: all assays above
